# Experimental data taken from PMC12802350, “Opposite effects of spermidine and GC7 in cell culture are dictated by distinct molecular targets” (Biochemical Journal, 2025).
# Substrate: NCCCCNCCCN
# Assay: DCHBS/AAP peroxide-coupled kinetic assay; Km from Michaelis–Menten/inhibition fit
# Type: biochemical, Bos taurus
# Conditions: TPQ (trihydroxyphenylalanine quinone), copper
protein,measurement,value
"bovine serum amine oxidase (BSAO) (Bos taurus) (protein, BSAO purified from bovine blood) REEGGVGSEEGVGKQCHPSLPPRCPSRSPSDQPWTHPDQSQLFADLSREELTTVMSFLTQQLGPDLVDAAQARPSDNCVFSVELQLPPKAAALAHLDRGSPPPAREALAIVFFGGQPQPNVTELVVGPLPQPSYMRDVTVERHGGPLPYYRRPVLLREYLDIDQMIFNRELPQAAGVLHHCCSYKQGGQKLLTMNSAPRGVQSGDRSTWFGIYYNITKGGPYLHPVGLELLVDHKALDPADWTVQKVFFQGRYYENLAQLEEQFEAGQVNVVVIPDDGTGGFWSLKSQVPPGPTPPLQFHPQGPRFSVQGNRVASSLWTFSFGLGAFSGPRVFDVRFQGERLAYEISLQEAGAVYGGNTPAAMLTRYMDSGFGMGYFATPLIRGVDCPYLATYMDWHFVVESQTPKTLHDAFCVFEQNKGLPLRRHHSDFLSHYFGGVAQTVLVFRSVSTMLNYDYVWDMVFYPNGAIEVKLHATGYISSAFLFGAARRYGNQVGEHTLGPVHTHSAHYKVDLDVGGLENWVWAEDMAFVPTAIPWSPEHQIQRLQVTRKQLETEEQAAFPLGGASPRYLYLASKQSNKWGHPRGYRIQTVSFAGGPMPQNSPMERAFSWGRYQLAITQRKETEPSSSSVFNQNDPWTPTVDFSDFINNETIAGKDLVAWVTAGFLHIPHAEDIPNTVTVGNGVGFFLRPYNFFDQEPSMDSADSIYFREGQDAGSCEINPLACLPQAATCAPDLPVFSHGGYPEY",Km,173.8 µM
